Experiments:
[1] = molecular target: Alexa Fluor 488 conjugated rabbit anti-mouse antibody (Invitrogen; A-11059); experiment: flow cytometry with Alexa Fluor 488 rabbit anti-mouse antibody after 30 min in simulated gastric juice (pepsin, pH 2.0 or 4.0), against incubation at pH 7.0
[2] = molecular target: M13/HRP antibody; experiment: depletion of M13/HRP antibody (0.45-9.0 µg/mL) from the supernatant by pSDLBA3b cells, TMB read-out, Langmuir linear regression
[3] = molecular target: Alexa Fluor 488 conjugated rabbit anti-mouse antibody (Invitrogen; A-11059); experiment: flow cytometry, 2 µg Alexa Fluor 488 rabbit anti-mouse antibody on Sdlba3b-expressing L. lactis cells; control cells (pNZ8148) 2.26

loss of fluorescence intensity [1]: < 14% | maximum amount of adsorbed antibody (µg per 1×10^8 cells) [2]: 0.146 | mean fluorescence intensity [3]: 151
Substance: Sdlba3b fusion protein (encoded by pSDLBA3b), immunoglobulin-binding B domain displayed on the surface of L. lactis (from UniProt P38507 212-269)

— US20120282700A1
